{"source": "paper PMC12313019", "about": "(2025)", "binders": {"B1": {"name": "SDC4_(87-131) (peptide)", "peptide": "NHIPERAGSGSQVPTEPKKLEENEVIPKRISPVEESEDVSNKVSM", "modifications": "The limits and source of the SPR ligand are not printed. The soluble ectodomain heterodimer is assumed by convention from the UniProt extracellular topology. Alpha-V may be cleaved into heavy and light chains joined by a disulfide. Amine-coupled to a CM5 chip."}}, "target": "integrin-αvβ1 (UniProt P06756 31-1048; P05556 21-798)", "sequence (P06756 31-992, chain 1 of 2)": "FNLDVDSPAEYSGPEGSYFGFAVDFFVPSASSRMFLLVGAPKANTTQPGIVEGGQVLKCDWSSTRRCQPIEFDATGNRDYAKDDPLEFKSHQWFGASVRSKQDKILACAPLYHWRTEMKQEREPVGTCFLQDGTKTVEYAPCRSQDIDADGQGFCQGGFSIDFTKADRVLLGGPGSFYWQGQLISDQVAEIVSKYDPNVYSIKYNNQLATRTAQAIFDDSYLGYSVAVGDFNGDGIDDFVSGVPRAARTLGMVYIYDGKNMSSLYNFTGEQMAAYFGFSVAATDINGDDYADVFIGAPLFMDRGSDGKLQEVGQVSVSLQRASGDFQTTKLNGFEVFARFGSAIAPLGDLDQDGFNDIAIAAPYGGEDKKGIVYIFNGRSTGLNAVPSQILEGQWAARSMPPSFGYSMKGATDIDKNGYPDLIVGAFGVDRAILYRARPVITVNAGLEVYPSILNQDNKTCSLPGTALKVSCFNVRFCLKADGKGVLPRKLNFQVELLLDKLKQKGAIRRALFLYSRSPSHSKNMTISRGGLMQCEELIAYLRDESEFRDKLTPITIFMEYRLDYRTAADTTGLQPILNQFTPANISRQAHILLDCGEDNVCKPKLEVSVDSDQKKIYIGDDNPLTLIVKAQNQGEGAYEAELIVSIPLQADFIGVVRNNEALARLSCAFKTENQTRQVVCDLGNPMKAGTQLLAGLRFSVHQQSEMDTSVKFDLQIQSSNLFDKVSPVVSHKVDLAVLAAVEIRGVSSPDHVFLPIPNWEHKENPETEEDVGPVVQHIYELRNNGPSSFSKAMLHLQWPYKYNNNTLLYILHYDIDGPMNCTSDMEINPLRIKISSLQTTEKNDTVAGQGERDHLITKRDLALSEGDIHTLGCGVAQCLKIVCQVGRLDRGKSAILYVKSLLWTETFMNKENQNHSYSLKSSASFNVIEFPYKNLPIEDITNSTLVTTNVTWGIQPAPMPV", "sequence (P05556 21-728, chain 2 of 2)": "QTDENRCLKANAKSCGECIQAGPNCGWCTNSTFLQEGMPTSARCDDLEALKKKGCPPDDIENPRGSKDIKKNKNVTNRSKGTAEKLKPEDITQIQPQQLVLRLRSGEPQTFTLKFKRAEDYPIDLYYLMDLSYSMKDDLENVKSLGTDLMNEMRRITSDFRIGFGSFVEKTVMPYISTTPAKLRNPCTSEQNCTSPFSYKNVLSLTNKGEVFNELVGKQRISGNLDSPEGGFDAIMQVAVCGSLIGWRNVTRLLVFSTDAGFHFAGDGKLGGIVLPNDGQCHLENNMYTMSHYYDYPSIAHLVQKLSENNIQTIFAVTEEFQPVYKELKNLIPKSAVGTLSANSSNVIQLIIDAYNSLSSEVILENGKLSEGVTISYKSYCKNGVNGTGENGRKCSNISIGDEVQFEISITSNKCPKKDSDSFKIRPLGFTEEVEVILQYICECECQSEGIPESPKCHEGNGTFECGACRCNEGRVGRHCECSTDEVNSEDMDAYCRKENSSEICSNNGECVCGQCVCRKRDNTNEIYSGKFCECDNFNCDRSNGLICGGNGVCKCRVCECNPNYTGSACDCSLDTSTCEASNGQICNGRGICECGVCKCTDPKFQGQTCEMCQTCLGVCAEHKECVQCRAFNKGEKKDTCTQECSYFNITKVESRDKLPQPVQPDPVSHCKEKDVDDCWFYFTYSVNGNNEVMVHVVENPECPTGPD", "assay": "SPR"}
{"binder": "B1", "values": [{"measurement": "Kd", "result": 43.6, "unit": "nM"}]}
